This note sets out measurements from patent publication US20240076389A1 (NATIONAL RESEARCH COUNCIL OF CANADA, published 2024).

For one test, the target named is T1, BSA (UniProt P02769 25-607).
T1 construct: also called BSA (negative control)
Nature of the test: ELISA on coated antigen. How it is done: (§1) To evaluate the cross-reactivity of the mAb to other members of the TAM receptor tyrosine kinase subfamily, binding of the mAb to rhAXL-ECD, rhMER-ECD, rhTyro-3 and BSA (negative control) was measured by ELISA. 96-w half-area plates (Costar) were coated with 25 μl of rhAXL-ECD, rhMER-ECD, rhTyro-3 or BSA at 5 μg/ml in PBS and incubated overnight at 4° C. Microplates were washed 3 times with PBS, blocked with PBS-BSA 1%, and 25 μl of a 10 μg/ml diluted in PBS-BSA 1% were added and incubated at 37° C., 5% CO₂ for 2 hours. Plates were washed 4 times with PBS-TWEEN™ 20 0.05% and incubated for one hour at 37° C., 5% CO₂ with 25 μl of secondary antibody alkaline phosphatase conjugated F(ab)′2 goat anti-mouse IgG (H+L) (Jackson Immunoresearch) diluted 1/5000 in blocking buffer. After 4 washes with PBS-Tween 20 0.05%, 25 μl of a 1 mg/ml pN PP substrate solution was added and further incubated for one hour at 37° C. OD405 nm measurements were done using a microplate reader (Spectramax 340 PC, Molecular Devices).

In another test the target is T2, rhMER-ECD (human, UniProt Q12866 21-505).
T2 construct: extracellular domain
T2 sequence (looked up): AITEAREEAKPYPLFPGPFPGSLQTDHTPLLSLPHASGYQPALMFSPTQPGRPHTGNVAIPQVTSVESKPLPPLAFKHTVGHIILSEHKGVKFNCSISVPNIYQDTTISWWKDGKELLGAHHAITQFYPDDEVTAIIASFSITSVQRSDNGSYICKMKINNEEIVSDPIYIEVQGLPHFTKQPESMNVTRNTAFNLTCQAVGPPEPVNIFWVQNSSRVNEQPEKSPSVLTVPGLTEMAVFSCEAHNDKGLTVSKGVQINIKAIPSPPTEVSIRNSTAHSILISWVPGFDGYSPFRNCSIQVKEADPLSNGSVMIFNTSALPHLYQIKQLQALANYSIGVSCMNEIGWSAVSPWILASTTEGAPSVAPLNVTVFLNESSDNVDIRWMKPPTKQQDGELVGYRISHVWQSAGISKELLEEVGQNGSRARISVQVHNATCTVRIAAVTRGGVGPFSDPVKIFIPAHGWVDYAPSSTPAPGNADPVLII
The test is described as follows: ELISA on coated antigen. How it is done: as §1

Another test addresses T3, rhTyro-3 (human, UniProt Q06418 41-429).
T3 construct: extracellular domain
T3 sequence (looked up): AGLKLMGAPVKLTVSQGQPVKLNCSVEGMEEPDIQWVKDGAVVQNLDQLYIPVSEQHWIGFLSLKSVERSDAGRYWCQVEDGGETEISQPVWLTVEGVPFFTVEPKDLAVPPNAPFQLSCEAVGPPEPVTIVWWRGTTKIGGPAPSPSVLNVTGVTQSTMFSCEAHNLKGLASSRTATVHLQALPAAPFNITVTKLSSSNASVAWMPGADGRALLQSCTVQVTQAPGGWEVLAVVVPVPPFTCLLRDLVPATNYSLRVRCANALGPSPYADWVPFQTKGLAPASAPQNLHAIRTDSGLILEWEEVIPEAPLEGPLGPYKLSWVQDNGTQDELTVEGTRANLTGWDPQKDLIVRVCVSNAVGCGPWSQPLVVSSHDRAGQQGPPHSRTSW
Nature of the test: ELISA on coated antigen. How it is done: as §1
Background: ELISA stands for enzyme-linked immunosorbent assay.

The target in test [1] is T4, human AXL expressed on the cell surface of tumor cell lines (human, UniProt P30530 26-894).
T4 construct: whole, on cells; also called cell surface-expressed AXL; cell-based AXL
T4 sequence (looked up): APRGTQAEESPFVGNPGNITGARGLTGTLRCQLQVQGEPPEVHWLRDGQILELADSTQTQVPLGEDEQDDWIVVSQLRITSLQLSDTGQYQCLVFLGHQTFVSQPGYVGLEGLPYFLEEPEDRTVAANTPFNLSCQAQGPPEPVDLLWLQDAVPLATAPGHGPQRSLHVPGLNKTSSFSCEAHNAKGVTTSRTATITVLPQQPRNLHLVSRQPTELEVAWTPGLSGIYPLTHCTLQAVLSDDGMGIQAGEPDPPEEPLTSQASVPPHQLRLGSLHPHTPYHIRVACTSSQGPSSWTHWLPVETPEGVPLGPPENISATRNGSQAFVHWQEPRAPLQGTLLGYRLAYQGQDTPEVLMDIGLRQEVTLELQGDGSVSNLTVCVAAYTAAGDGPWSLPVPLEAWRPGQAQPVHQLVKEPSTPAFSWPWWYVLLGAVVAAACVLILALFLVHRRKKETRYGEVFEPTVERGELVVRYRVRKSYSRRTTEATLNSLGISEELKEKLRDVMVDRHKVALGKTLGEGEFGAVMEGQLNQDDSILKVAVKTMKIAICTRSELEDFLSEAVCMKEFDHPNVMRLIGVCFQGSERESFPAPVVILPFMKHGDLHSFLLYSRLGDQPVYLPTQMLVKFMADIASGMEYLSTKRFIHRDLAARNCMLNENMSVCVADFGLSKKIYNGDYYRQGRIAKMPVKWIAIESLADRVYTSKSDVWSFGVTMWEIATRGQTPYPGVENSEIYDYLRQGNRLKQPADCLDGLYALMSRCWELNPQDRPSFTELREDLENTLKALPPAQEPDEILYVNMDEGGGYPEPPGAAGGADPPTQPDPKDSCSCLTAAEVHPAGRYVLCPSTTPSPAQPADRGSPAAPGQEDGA
Nature of the test: flow cytometry on H292 cells, apparent cell binding constant. How it is done:
Detection of antibody binding to surface AXL by flow cytometry. Prior to analysis, cells were plated such that they were not more than 80% confluent on the day of analysis. Cells were washed in PBS and harvested by the addition of cell dissociation buffer (Sigma). A cell suspension containing 2.5×10⁵ cells (in 500 μl corresponding cell culture media) was incubated with various concentrations (0.01-10 nM) of anti-AXL antibodies for 2 h at 4° C. (to prevent internalization). Following one wash with cell culture media, primary antibody was incubated with 2 μg DYLIGHT™ 488 conjugated AffiniPure goat anti-mouse IgG Alexa 488 secondary antibody (Jackson ImmunoResearch) in 100 μl of media for 1 h at 4° C. Prior to analysis, cell pellets were re-suspended in 300-500 μl media and filtered through a 50 μm nylon mesh filter to remove cell aggregates. Flow cytometry analyses were performed on 10,000 viable cells gated on forward scattering, side scattering parameters and propidium iodide dye exclusion using a BD LSRII flow Cytometer (Becton-Dickinson Biosciences, CA, USA) and a standard filter set using BD FACSDiva™ acquisition software, according to manufacturer's instructions.
Specific detection of antibody binding was calculated as the mean fluorescent intensity of binding to each primary antibody after background level subtraction of the mean fluorescent intensity of binding in the absence of primary antibody (but containing detection antibody). Binding parameters Bmax, (maximum fluorescence signal at receptor saturation), and KD (apparent cell binding constant) were then determined using a One site—Specific binding with Hill slope model in GraphPad Prism v 6.0.

T1 sequence (P02769 25-607 limits assumed): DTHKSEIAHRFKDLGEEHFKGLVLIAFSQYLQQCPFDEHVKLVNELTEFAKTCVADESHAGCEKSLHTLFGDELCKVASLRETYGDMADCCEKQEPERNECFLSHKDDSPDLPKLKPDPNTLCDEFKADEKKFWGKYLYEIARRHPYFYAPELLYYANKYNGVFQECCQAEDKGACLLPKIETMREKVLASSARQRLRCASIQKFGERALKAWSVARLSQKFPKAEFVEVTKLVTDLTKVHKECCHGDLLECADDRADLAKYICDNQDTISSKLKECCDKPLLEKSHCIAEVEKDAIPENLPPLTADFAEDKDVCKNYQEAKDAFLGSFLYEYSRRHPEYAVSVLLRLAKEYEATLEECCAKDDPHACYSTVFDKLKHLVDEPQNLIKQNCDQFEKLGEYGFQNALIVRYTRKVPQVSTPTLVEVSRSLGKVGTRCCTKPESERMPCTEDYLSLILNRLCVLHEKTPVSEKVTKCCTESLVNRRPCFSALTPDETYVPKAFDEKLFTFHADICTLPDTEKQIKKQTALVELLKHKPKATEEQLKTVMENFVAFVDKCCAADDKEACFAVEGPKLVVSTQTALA

B1: F111-3C8 (antibody, V domains shown)
VH: QVQLQQPGAELGKPGTSVKLSCKASGYTFTSYWMHWVKRVPGQGLEWIGNINPNSTSADYNEKFKRKATLTVDKSSSTAYMQLSTLTSEDSAVYYCTRPLMGPYWYFDVWGTGTTVTVSS
VL: QIVLTQSPAIMSASPGEKVTISCSASSSVSYMYWYQQKPGSSPKPWIYRTSNLASGVPARFSGSGSGTSYSLTISSMEAEDAATYYCQQYHNYPPTFGGGTKLEIK
notes: also called F111-3C8-2
Consider B1, for which the binding result with BSA, with rhMER-ECD and with rhTyro-3 was “no binding (tested: 10 µg/ml)” in each case. The Kd in test [1] turned out to be 1.23 nM.

B2: F111-5E9 (antibody, V domains shown)
VH: QIQLVQSGPELKKPGETVKISCKASGYTFTKYGMNWVKQAPGKGLKWMGWINTYTGEPTYADDFKGRFAFSLETSASTAYLQINNLTTEDMVTYFCAKGGYYSNPIYPMDYWGQGTSVTVSS
VL: DIQMTQTTSSLSASLGDRVTISCRASQDINNYLNWYQQKPDGTVKLLIYYISRLHSGVPSRFSGSGSGTDYSLTISNLELEDVATYFCQQGNTLPFTFGSGTKLEIK
notes: also called F111-5E9-2; mAb 5E9
Take B2: the binding result with BSA, with rhMER-ECD and in the test with rhTyro-3 was “no binding (tested: 10 µg/ml)” throughout. For the same molecule, the Kd in test [1] came to 0.177 nM.

B3: F107-10G1 (antibody, V domains shown)
VH: EVNLVESGGGVVKPGASLKLSCEASGFTFSNYGMSWVRQTSDKRLEWVASISGGGGRTYYLDNVKGRFIISRENAKNTLYLQMSSLKSEDTALFYCARGARASYFAMDYWGQGSSVTVSS
VL: VIVMTQSHKFMSTSVGDRVSITCKASQDVTTAVAWYQQKPGQSPKLLIYWASTRHTGVPDRFTGSGSGTDYSLTISNVQTEDLAFYYCQQHFTTPLTFGAGTKLELK
notes: also called F107-10G1-3
Consider B3, for which the binding result with BSA, with rhMER-ECD and with rhTyro-3 was “no binding (tested: 10 µg/ml)” in each case. For the same molecule, the Kd in test [1] came to 0.101 nM.

B4: F107-8D12 (antibody, V domains shown)
VH: QVQLQQPGAELVKPGASVQLSCKASGYTFISFWINWVKQRPGQGLEWMGNIFPGSSSTNYNEKFKSKATLTVDKSSSTAYMQLSSLTSEDSAVYFCARDYYGGSPDYWGQGTTLTVSS
VL: DIVMSQSPSSLAVSAGERVTMSCKSSQSLLNTRTRKNYLAWYQQKPGQSPKLLIYWASTRESGVPDRFTGSGSGTDFTLTISSVQAEDLAVYYCKQSYNLWTFGGGTKLEIK
notes: also called F107-8D12-2; mAb 8D12
Turning to B4, the binding result with BSA, in the test with rhMER-ECD and with rhTyro-3 was “no binding (tested: 10 µg/ml)” each time. In test [1], the Kd came to 0.088 nM.

B5: F107-7H5 (antibody, V domains shown)
VH: QVQLQQPGAELVKPGASVKLSCKASGYTFTSYWINWVKQRPGQGLEWIGNIYPDSSSTNYNEKFKSKATLTVDKSSTTAYIQFSSLTSEDSAVYYCTRDTYGGSPDYWGQGTTLTVSS
VL: DIVMSQSPSSLAVSAGEKVTMSCKSSQSLLNSRTRKIYLAWYQQKPGQSPKLLIYWASTRQSGVPDRFTGSGSGTDFTLTISSVQAEDLAVYYCKQSYNLWTFGGGTKLEIK
notes: also called F107-7H5-2; mAb 7H5
In the case of B5, the binding result in the test with BSA, with rhMER-ECD and with rhTyro-3 was “no binding (tested: 10 µg/ml)” each time. Further, in test [1], the Kd was 0.104 nM.
